Experimental findings from US7919262B2, “14-3-3 proteins for diagnosis of Parkinson's disease” (The UAB Research Foundation, priority 2007, dated 2011) are described below.

In experiment [1] the test system is H4 cells. The experiment is described as follows: α-syn toxicity assay, adenylate kinase released into the media. As to conditions: co-transfected with wildtype α-syn; 24 hours after transfection; vs empty vector. The class given is cell-based. On the procedure: Briefly, H4 cells were transfected with wildtype α-syn and each of the 14-3-3 polypeptide isoforms or empty vector controls as discussed above. Twenty-four hours after transfection, cell death was assayed by adenylate kinase activity in the media (n=4, *p<0.05, **p<0.01, ***p<0.001).
Primers against each of the human 14-3-3 isoforms were designed using Primer3. Primers against 14-3-3β (NM_018753) were 5′ […] 3′ (forward; SEQ ID NO. 9) and 5′ […] 3′ (reverse; SEQ ID NO. 10). Primers against 14-3-3ε (NM_009536) were 5′ […] 3′ (forward; SEQ ID NO. 11) and 5′ […] 3′ (reverse; SEQ ID NO. 12). Primers against 14-3-3γ (NM_018871) were 5′ […] 3′ (forward; SEQ ID NO. 13) and 5′ […] 3′ (reverse; SEQ ID NO. 14). Primers against 14-3-3η (NM_011738) were 5′ […] 3′ (forward; SEQ ID NO. 15) and 5′ […] 3′ (reverse; SEQ ID NO. 16). Primers against 14-3-3θ (NM_011739) were 5′ […] 3′ (forward; SEQ ID NO. 17) and 5′ […] 3′ (reverse; SEQ ID NO. 18). Primers against 14-3-3σ (NM_018754) were 5′ […] 3′ (forward; SEQ ID NO. 19) and 5′ […] 3′ (reverse; SEQ ID NO. 20). Primers against 14-3-3ζ(NM_011740) were 5′ […] 3′ (forward; SEQ ID NO. 21) and 5′ […] 3′ (reverse; SEQ ID NO. 22). Primers against GAPDH were 5′ tggtgaagcaggeatctga 3′ (forward; SEQ ID NO. 23) and 5′ […] […] All cells stained for α-syn were scored as positive or negative for α-syn aggregates, with the rater blind to experimental condition. • α-syn toxicity assay H4 cells were transfected with α-syn and either empty vector control or a 14-3-3 isoform using Superfect transfection reagent (Qiagen). 24 hours after transfection, toxicity was measured by the amount of adenylate kinase released into the media using the ToxiLight™ kit (Cambrex). • Creation of stable cell lines Each 14-3-3 isoform was subcloned into the mammalian expression vector mcDNA3.1/V5-His (Invitrogen). […] Protein concentrations of supernatants were determined by the bicinchoninic acid assay (BCA; Pierce, Rockford, Ill.). […]

In experiment [2] the test system is Transgenic C. elegans worms that overexpress human wildtype α-syn. Nature of the experiment: Dopaminergic neuron loss in α-syn transgenic worm model. The class given is in vivo. As to conditions: human 14-3-3θ overexpressed along with α-syn. From the text: FIG. 10. Overexpression of 14-3-3θ protects against dopaminergic cell loss in the α-syn transgenic C. elegans worm model. Double transgenic worms were created in which the 14-3-3θ isoform was overexpressed along with α-syn.
We turned to the C. elegans model of PD, in which human wildtype α-syn is overexpressed. […] Double transgenic worms were created in which the 14-3-3θ isoform was overexpressed along with α-syn. […] In contrast, 18.9% of worms that overexpressed human 14-3-3θ along with α-syn had all six dopaminergic neurons at seven days (FIG. 10; p<0.001 compared to α-syn worms). 12.9% of worms had the full anterior complement of dopaminergic neurons at 10 days (FIG. 10; p<0.00001).

In experiment [3] the test system is naïve M17 cells. The experiment is described as follows: Rotenone toxicity after transient transfection, scoring of apoptotic nuclei. The class given is cell-based, human. As to conditions: rotenone 0, 0.2 or 1 μM for 24 hours, vs control transfection. On the procedure:
FIGS. 6A-D show M17 cells overexpressing 14-3-3θ are resistant to rotenone treatment. Cell lines stably-transfected with either 14-3-3θ or empty vector were treated with varying concentrations of rotenone (0-25 μM) for 24 hours (FIG. 6A), 30 hours (FIG. 6B), or 48 hours (FIG. 6C). Cell death was assayed by LDH release into the culture media. LDH release into media was normalized to total LDH release for each well. The 14-3-3θ-overexpressing line was more resistant to rotenone in a dose-dependent manner compared to control stable cells at all time points tested. […] Rater was blind to experimental condition. n=8 for each experimental condition. *p<0.05, ***p<0.001 (Bonferroni's multiple comparison test).
The effects of 14-3-3θ overexpression on rotenone toxicity was also examined by transient transfection of this isoform into naïve M17 cells. Briefly, M17 cells were transfected with V5-tagged 14-3-3θ isoform or enhanced yellow fluorescent protein (EYFP) (control) and were treated with rotenone for 24 hours at 0, 0.2, or 1 μM rotenone. Because of the relatively low rates of transfection, after the treatment period cells were fixed and stained against V5 (or GFP in the case of control), followed by Hoechsht 33342 staining. With the rater blind to experimental condition, the nuclei of cells that stained for V5 or GFP were scored as normal or apoptotic.

B1: 14-3-3ζ: 14-3-3 polypeptide ζ isoform, overexpressed from expression vector (protein, UniProt P63104 1-245, looked up)
14-3-3 protein zeta/delta: MDKNELVQKAKLAEQAERYDDMAACMKSVTEQGAELSNEERNLLSVAYKNVVGARRSSWRVVSSIEQKTEGAEKKQQMAREYREKIETELRDICNDVLSLLEKFLIPNASQAESKVFYLKMKGDYYRYLAEVAAGDDKKGIVDQSQQAYQEAFEISKKEMQPTHPIRLGLALNFSVFYYEILNSPEKACSLAKTAFDEAIAELDTLSEESYKDSTLIMQLLRDNLTLWTSDTQGDEAEAGEGGEN
With B1, the “effect on α-syn dependent cell death (adenylate kinase activity in the media)” value in experiment [1] is listed as “protective effects”.

B2: 14-3-3θ: 14-3-3 polypeptide θ isoform, overexpressed from V5/His-tagged pcDNA3.1 vector (or as transgene in C. elegans) (protein, UniProt P27348 1-245, looked up)
14-3-3 protein theta: MEKTELIQKAKLAEQAERYDDMATCMKAVTEQGAELSNEERNLLSVAYKNVVGGRRSAWRVISSIEQKTDTSDKKLQLIKDYREKVESELRSICTTVLELLDKYLIANATNPESKVFYLKMKGDYFRYLAEVACGDDRKQTIDNSQGAYQEAFDISKKEMQPTHPIRLGLALNFSVFYYEILNNPELACTLAKTAFDEAIAELDTLNEDSYKDSTLIMQLLRDNLTLWTSDSAGEECDAAEGAEN
modifications: V5/His tag
On to B2, for which the “effect on α-syn dependent cell death (adenylate kinase activity in the media)” value in experiment [1] is “protective effects”. The “worms with the full anterior complement of dopaminergic neurons” value in experiment [2] (10 days) is on record as 12.9%. The “worms with all six anterior dopaminergic neurons present” value in experiment [2] (seven days) is on record as 18.9%. For the same molecule, the “cell death (apoptotic nuclei) in response to rotenone treatment” value in experiment [3] is on record as “decreased cell death”.
